# From publication PMC4442525 (2015)
# B1: FLAG-tagged KIR3DL1*001 [human] / HLA-B*57:01-LF9 tetramer [human | not stated] (parent complex)
# chain 1: HMGGQDKPFLSAWPSAVVPRGGHVTLRCHYRHRFNNFMLYKEDRIHIPIFHGRIFQESFNMSPVTTAHAGNYTCRGSHPHSPTGWSAPSNPVVIMVTGNHRKPSLLAHPGPLVKSGERVILQCWSDIMFEHFFLHKEGISKDPSRLVGQIHDGVSKANFSIGPMMLALAGTYRCYGSVTHTPYQLSAPSDPLDIVVTGPYEKPSLSAQPGPKVQAGESVTLSCSSRSSYDMYHLSREGGAHERRLPAVRKVNRTFQADFPLGPATHGGTYRCFGSFRHSPYEWSDPSDPLLVSVTGNPSSSWPSPTEPSSKSGNPRHLHILIGTSVVIILFILLLFFLLHLWCSNKKNAAVMDQEPAGNRTANSEDSDEQDPEEVTYAQLDHCVFTQRKITRPSQRPKTPPTDTILYTELPNAKPRSKVVSCP
# chain 2: not shown
# chain 3: not shown
# chain 4: LSSPVTKSF
# Variants of: B1
# Assay: pHLA tetramer staining of transfected HEK293T cells; read off a plot
row,Variant,response
1,chain 4 S8H,~99
2,chain 4 S8A,~57
3,chain 4 S8R,~72
4,chain 4 S8F,~110
5,chain 4 S8L,~58

# Variants of: B1
# Assay: as above
# Remark: another data set of the same source
row,Variant,response
1,chain 4 S8E,~6

# Variants of: B1
# Assay: as above
# Remark: another data set of the same source
row,Variant,response
1,chain 1 P199L,~71
2,chain 1 G138W,~83
3,chain 1 L166R,~8
4,chain 1 P163S,~81
